In patent US20220340675A1 (CELGENE, published 2022):
Values belong to the binder of their own block, whether it stands above or below them.

Legend:
[1] = biological target: T1, human CD47 expressed on the cell surface (human, UniProt Q08722 19-323); experiment: blocking of human SIRPα binding to OCI-Ly3 cells (FIG. 21)
T1 construct: whole, on cells; also called CD47 on Raji, OCI-Ly3, Fadu cells, human RBCs, platelets and blood cells

[2] = biological target: T2, CD20 on cells (Raji cells, human B cells) (human, UniProt P11836 1-297); experiment: binding to Raji cells (CD20+/CD47+), FIG. 17
T2 construct: whole, on cells; The cells that carry it (Raji, B cells) also carry CD47
T2 sequence (looked up): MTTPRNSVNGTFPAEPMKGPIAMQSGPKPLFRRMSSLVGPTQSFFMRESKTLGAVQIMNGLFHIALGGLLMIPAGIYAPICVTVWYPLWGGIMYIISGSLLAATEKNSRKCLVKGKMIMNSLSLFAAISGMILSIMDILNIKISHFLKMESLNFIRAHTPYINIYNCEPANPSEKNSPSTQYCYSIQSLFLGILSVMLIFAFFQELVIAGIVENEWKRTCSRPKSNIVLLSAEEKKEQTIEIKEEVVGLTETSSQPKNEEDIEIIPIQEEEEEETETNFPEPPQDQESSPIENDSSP

[3] = biological target: T1, human CD47 expressed on the cell surface; experiment: cell-based or functional assay

EC50 [1]: 0.11 nM
B1: TPP-23 (408_437 Fab with IgG1) (antibody, V domains shown)
VH: QMQLVQSGAEVKKPGSSVKVSCKASGFNIKDYYLHWVRQAPGKGLEWMGWIDPDQGDTEYAQKFQGRVTITRDRSTSTAYMELRSLRAEDTAVYYCNAAYGSSSYPMDYWGQGTLVTVSS
VL: NIQMTQSPSSLSASVGDRVTITCRASQDIHRYLSWFQQKPGKVPKHLIYRANRLVSGVPSRFSGSGSGTEFTLTISSLQPEDFATYYCLQYDEFPYTFGGGTKVEIK
notes: also called parental CD47 mAb

EC50 [2]: ~1.1 nM
B2: rituximab (antibody, human IgG1, kappa, V domains shown)
VH: QVQLQQPGAELVKPGASVKMSCKASGYTFTSYNMHWVKQTPGRGLEWIGAIYPGNGDTSYNQKFKGKATLTADKSSSTAYMQLSSLTSEDSAVYYCARSTYYGGDWYFNVWGAGTTVTVSA
VL: QIVLSQSPAILSASPGEKVTMTCRASSSVSYIHWFQQKPGSSPKPWIYATSNLASGVPVRFSGSGSGTSYSLTISRVEAEDAATYYCQQWTSNPPTFGGGTKLEIKR
notes: Anti-CD20 antibody, bivalent to CD20; also called rituxan

EC50, activation of macrophage phagocytosis of OCI-Ly3 cells [3]: 1.4 nM | EC50, activation of macrophage phagocytosis of Raji cells [3]: 1.8 nM
B3: TPP-1360 (bispecific antibody, human IgG1, kappa)
light 1: NIQMTQSPSSLSASVGDRVTITCRASQDIHRYLSWFQQKPGKVPKHLIYRESRFVDGVPSRFSGSGSGTEFTLTISSLQPEDFATYYCLQYDEFPYTFGGGTKVEIKRTVAAPSVFIFPPSDEELKSGTASVVCWLNNFYPREAKVQWKVDNALQSGNSEESVTEQDSKDSTYSLSSTLELSKADYEKHKVYACEVTHQGLSSPVTKSFNRGEC
heavy 1: QMQLVQSGAEVKKPGSSVKVSCKASGFNIKDYYLHWVRQAPGKGLEWMGWIDPDQGDTYYAQKFQGRVTITRDRSTSTAYMELRSLRAEDTAVYYCNAAYGESSYPMDYWGQGTLVTVSSASTKGPSVFPLAPSSKSTSGGTAALGCLVKDYFPEPVTVSWNSGALTSGVHTFPAVLKSSGLYSLSSVVTVPSSSLGTQTYICNVNHKPSNTKVDKKVEPKSCDKTHTCPPCPAPELLGGPSVFLFPPKPKDTLMISRTPEVTCVVVDVSHEDPEVKFNWYVDGVEVHNAKTKPREEQYNSTYRVVSVLTVLHQDWLNGKEYKCKVSNKALPAPIEKTISKAKGQPREPQVYVLPPSREEMTKNQVSLLCLVKGFYPSDIAVEWESNGQPENNYLTWPPVLDSDGSFFLYSKLTVDKSRWQQGNVFSCSVMHEALHNHYTQKSLSLSPGK
light 2: QIVLSQSPAILSASPGEKVTMTCRASSSVSYIHWFQQKPGSSPKPWIYATSNLASGVPVRFSGSGSGTSYSLTISRVEAEDAATYYCQQWTSNPPTFGGGTKLEIKRTVAAPSVAIFPPSDERLKSGTASVVCVLNNFYPREAKVQWKVDNALQSGNSQESVTEQDSKDSTYSLSSRLTLSKADYEKHKVYACEVTHQGLSSPVTKSFNRGEC
heavy 2: QVQLQQPGAELVKPGASVKMSCKASGYTFTSYNMHWVKQTPGRGLEWIGAIYPGNGDTSYNQKFKGKATLTADKSSSTAYMQLSSLTSEDSAVYYCARSTYYGGDWYFNVWGAGTTVTVSAASTKGPSVFPLAPSSKSTSGGTAWLGCEVTDYFPEPVTVSWNSGALTSGVHTFPAVLESSGLYSLSSVVTVPSSSLGTQTYICNVNHKPSNTKVDKKVEPKSCDKTHTCPPCPAPELLGGPSVFLFPPKPKDTLMISRTPEVTCVVVDVSHEDPEVKFNWYVDGVEVHNAKTKPREEQYNSTYRVVSVLTVLHQDWLNGKEYKCKVSNKALPAPIEKTISKAKGQPREPQVYVYPPSREEMTKNQVSLTCLVKGFYPSDIAVEWESNGQPENNYKTTPPVLDSDGSFALVSKLTVDKSRWQQGNVFSCSVMHEALHNHYTQKSLSLSPGK
